T1: Pab2 (nuclear poly(A) binding protein) (Schizosaccharomyces pombe, UniProt O14327 1-166)
T1 sequence: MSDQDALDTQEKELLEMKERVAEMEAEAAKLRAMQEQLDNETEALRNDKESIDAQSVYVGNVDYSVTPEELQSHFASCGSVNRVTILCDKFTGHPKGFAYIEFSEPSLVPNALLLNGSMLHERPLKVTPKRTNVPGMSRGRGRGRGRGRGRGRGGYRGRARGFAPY

T2: PABPN1 (His-PABPN1) (bovine, UniProt Q28165 1-306)
T2 sequence: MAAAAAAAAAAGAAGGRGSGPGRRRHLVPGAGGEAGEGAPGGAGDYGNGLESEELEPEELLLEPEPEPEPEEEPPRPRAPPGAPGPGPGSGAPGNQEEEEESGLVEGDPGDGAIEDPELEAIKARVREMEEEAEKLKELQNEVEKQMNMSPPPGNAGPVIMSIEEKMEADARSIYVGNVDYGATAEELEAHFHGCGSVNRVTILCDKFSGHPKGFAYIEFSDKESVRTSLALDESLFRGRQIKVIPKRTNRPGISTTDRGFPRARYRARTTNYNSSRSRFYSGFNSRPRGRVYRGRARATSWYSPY


Experiments:
Assay in all cases: filter binding
[1] = target: T1, Pab2 (nuclear poly(A) binding protein)
PABPN1 (His-PABPN1) = target: T2, PABPN1 (His-PABPN1)
[2] = target: T1, Pab2 (nuclear poly(A) binding protein); remark: listed apart in the source

Row | Binder | binding result [1] | binding result (PABPN1 (His-PABPN1)) | Kd [2]
1 | A100 (ssRNA) RNA: AAAAAAAAAAAAAAAAAAAAAAAAAAAAAAAAAAAAAAAAAAAAAAAAAAAAAAAAAAAAAAAAAAAAAAAAAAAAAAAAAAAAAAAAAAAAAAAAAAAA | binds | binds | –
2 | AAAAAAAAAAAAAA (ssRNA) [A14] | – | – | 5.3 ± 1.1 nM
